# Earlier results, collected in PMC11578925.
# Columns and labels:
# CD28 (Homo sapiens) = CD28 (Homo sapiens) (UniProt P10747)
# PD-L1 (Homo sapiens) = PD-L1 (Homo sapiens) (UniProt Q9NZQ7)
# UniProt Q9NZQ7, sequence (Q9NZQ7 19-238): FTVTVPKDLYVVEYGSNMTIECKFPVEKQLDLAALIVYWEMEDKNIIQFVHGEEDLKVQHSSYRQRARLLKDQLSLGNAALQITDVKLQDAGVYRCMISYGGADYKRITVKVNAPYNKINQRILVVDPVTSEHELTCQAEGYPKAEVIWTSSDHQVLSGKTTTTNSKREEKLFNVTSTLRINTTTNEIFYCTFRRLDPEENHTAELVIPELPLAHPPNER
substance,measurement,setting,value
CD80 (from UniProt P33681),Kd,CD28 (Homo sapiens),4 µM
same,Kd,PD-L1 (Homo sapiens),1700 nM
